Measurements as given in patent US10487337B2, “Methods for monocot plant improvement” (Agresearch Limited, priority 2014, dated 2019).

Key:
BZR1 = target: T1, BZR1 (Arabidopsis thaliana, UniProt Q8S307); assay: BiFC interaction with BZR1 in Nicotiana benthamiana leaves; type: cell-based
T1 construct: expressed in transfected cells; host or cells: Nicotiana benthamiana leaves (Agrobacterium infiltration)
T1 sequence (Q8S307 1-336): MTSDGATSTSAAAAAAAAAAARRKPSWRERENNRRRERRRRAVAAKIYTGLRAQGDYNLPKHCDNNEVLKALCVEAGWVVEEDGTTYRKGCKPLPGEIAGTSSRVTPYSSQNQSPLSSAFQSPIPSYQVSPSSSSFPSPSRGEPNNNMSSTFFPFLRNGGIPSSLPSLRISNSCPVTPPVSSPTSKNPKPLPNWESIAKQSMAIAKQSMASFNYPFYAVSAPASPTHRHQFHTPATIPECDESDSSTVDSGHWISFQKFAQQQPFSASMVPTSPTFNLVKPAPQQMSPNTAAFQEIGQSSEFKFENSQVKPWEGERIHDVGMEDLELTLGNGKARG
Source text: (§1) The binary BiFC-Gateway YFP vectors pDEST-VYNE(R)^GW (Venus aa 1-173) and pDEST-VYCE(R)^GW (Venus aa 156-239) with N-terminal fusions, were used to construct the following vectors; pDESTnYFP-BZR1, pDESTnYFP-NINJA, pDESTnYFP-PPD1, pDESTcYFP-BZR1, pDESTcYFP-PPD1, pDESTcYFP-PPD1Δppd, pDESTcYFP-PPD1Δtify and pDESTcYFP-PPD1Δjas*. For transient in planta expression of proteins interacting with PPD1 or BZR, NINJA and TPL were Gateway® sub-cloned into pRSh1, to construct pRSh1-NINJA and pRSh1-TPL. Plasmids for co-immunoprecipitation: A synthesised DNA construct encoding PPD1 with a 3×c-myc C-terminal fusion was sub-cloned into pRSh1 to produce pRSh1-PPD1-3×c-myc, while the NINJA cDNA sequence was sub-cloned into pB7FWG2,0 (Karimi et al 2002, Trends Plant Sci. 7, 193-195) to construct pB7FWG2-NINJA-GFP. When expressed these constructs produced proteins listed in sequences 60, 62, 70 71 72 73 74 75 76 77 78 79: including TOPLESS (TPL), NINJA, Bimolecular Fluorescence (BiFC) nYFP, BiFC cYFP, BiFC nYFP-NINJA, BiFC nYFP-BZR1, BiFC cYFP-PPD1, BiFC cYFP-NINJA, BiFC cYFP-BZR1, BiFC cYFP-PPD1-ppd, BiFC cYFP-PPD1-tify, BiFC cYFP-PPD1-jas*.
Transient BiFC experiments were performed using combinations of pDESTnYFP and pDESTcYFP plasmids, with or without plasmids for the expression of NINJA (pRSh1-NINJA) or TPL (pRSh1-TPL) and Agrobacterium-infiltration of Nicotiana benthamiana leaves. For infiltration Agrobacterium tumefaciens GV3101 strains containing the binary vectors were re-suspended from plates and prepared for transformation as described for the LUC assay. All YFP and expression strains were mixed in ratios of 1:1 (vol/vol) with the addition of strain P19 at 1/10th volume. Five leaf discs were sampled from each infiltrated leaf after 40 h. Two hours prior to sampling for microscopic fluorescence observations leaves were infiltrated with a 1 μg/ml DAPI solution to stain nuclei. YFP fluorescence and DAPI staining was detected using an Olympus Fluoview FV10i confocal laser scanning microscope. Each experiment was repeated twice.

NINJA = target: T2, NINJA (Arabidopsis thaliana, UniProt Q9SV55); assay: BiFC interaction with NINJA in Nicotiana benthamiana leaves; type: cell-based; conditions: in plants (FIG. 8)
T2 construct: expressed in transfected cells; host or cells: Nicotiana benthamiana leaves (Agrobacterium infiltration)
T2 sequence (Q9SV55 with tags, fused parts or gaps): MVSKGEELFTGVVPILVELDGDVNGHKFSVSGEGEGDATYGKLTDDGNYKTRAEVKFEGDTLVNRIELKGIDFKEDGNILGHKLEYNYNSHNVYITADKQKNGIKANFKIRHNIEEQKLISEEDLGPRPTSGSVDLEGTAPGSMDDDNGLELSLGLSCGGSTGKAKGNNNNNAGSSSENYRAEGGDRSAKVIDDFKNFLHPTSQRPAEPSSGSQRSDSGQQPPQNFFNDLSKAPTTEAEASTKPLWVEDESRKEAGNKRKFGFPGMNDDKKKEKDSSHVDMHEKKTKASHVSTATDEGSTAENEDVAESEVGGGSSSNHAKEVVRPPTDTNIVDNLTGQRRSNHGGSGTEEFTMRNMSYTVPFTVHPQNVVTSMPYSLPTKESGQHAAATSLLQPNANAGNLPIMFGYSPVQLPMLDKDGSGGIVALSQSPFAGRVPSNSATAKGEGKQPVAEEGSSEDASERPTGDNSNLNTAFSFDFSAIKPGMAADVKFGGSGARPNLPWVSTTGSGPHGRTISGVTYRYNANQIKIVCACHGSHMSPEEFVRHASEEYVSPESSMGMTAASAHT
Source text: as §1, with “Plasmids for co-immunoprecipitation: A synthesised DNA construct encoding PPD1 with a 3×c-myc C-terminal fusion was sub-cloned into pRSh1 to produce pRSh1-PPD1-3×c-myc, while the NINJA cDNA sequence was sub-cloned into pB7FWG2,0 (Karimi et al 2002, Trends Plant Sci. 7, 193-195) to construct pB7FWG2-NINJA-GFP.” left out
Transient BiFC experiments were performed using combinations of pDESTnYFP and pDESTcYFP plasmids, with or without plasmids for the expression of NINJA (pRSh1-NINJA) or TPL (pRSh1-TPL) and Agrobacterium-infiltration of Nicotiana benthamiana leaves. […] Two hours prior to sampling for microscopic fluorescence observations leaves were infiltrated with a 1 μg/ml DAPI solution to stain nuclei. YFP fluorescence and DAPI staining was detected using an Olympus Fluoview FV10i confocal laser scanning microscope. […]

ryegrass plants [1] = assay: Leaf biomass analysis of grass transformants; type: in vivo; conditions: observed leaf growth, approximately 6 weeks
Experimental: (§2) An equal number (typically 4-10) of tillers were taken from WT and ryegrass plants transformed with Arabidopsis PPD under one of two green tissue promoters. Tillers were planted into plastic grow bags containing potting mix and pruned to be of equal height. […] The increase in leaf/shoot biomass can be quantified removing the attached above ground portion (leaves and shoots) and drying them at 65° C. for 48 hr then weighing the dry weights.
as §2, with “a constitutive promoter.” for “one of two green tissue promoters.”, “was” for “can be”, “weights (Table 2).” for “weights.”

ryegrass plants [2] = assay: Root biomass analysis of grass transformants; type: in vivo; conditions: root growth beyond the grow bag, approximately 6 weeks
Experimental: as §2, with “three root” for “two green tissue”, “root” for “leaf/shoot”, “was” for “can be”, “the roots” for “them”, “weights (Tables 3 and 4)” for “weights.”
as §2, with “a constitutive promoter.” for “one of two green tissue promoters.”, “root” for “leaf/shoot”, “was” for “can be”, “the roots” for “them”, “weights (Table 5).” for “weights.”

B1: PPD1: PEAPOD 1 protein of Arabidopsis thaliana, SEQ ID NO: 1 (protein, listed as Arabidopsis thaliana)
chain: MDVGVSPAKSILAKPLKLLTEEDISQLTREDCRKFLKDKGMRRPSWNKSQAIQQVLSLKALYEPGDDSGAGIFRKILVSQPVNPPRVTTTLIEPSNELEACGRVSYPEDNGACHRMDSPRSAEFSGGSGHFVSEKDGHKTTISPRSPAETSELVGQMTIFYSGKVNVYDGIPPEKARSIMHFAANPIDLPENGIFASSRMISKLISKEKMMELPQKGLEKANSSRDSGMEGQANRKVSLQRYREKRKDRKFSKAKKCPGVASSSLEMFLNCQPRMKAAYSQNLGCTGSPLHSQSPESQTKSPNLSVDLNSEGI
- interaction with BZR1 (BZR1; fully expanded leaves, co-expression of NINJA): restored
- interaction with BZR1 (BZR1; pavement cells of immature Nicotiana benthamiana leaves): appears to interact with BZR1 in the nucleus
- interaction with NINJA (NINJA): interacted with NINJA in plants
- leaf biomass/growth/length/branching compared to WT plants (ryegrass plants [1]; constitutive promoter): increase in leaf biomass/growth/length/branching
- leaf biomass/growth/length/branching compared to WT plants (ryegrass plants [1]; green tissue promoter): increase in leaf biomass/growth/length/branching
- root biomass/growth/length/branching compared to WT plants (ryegrass plants [2]; constitutive promoter): increase in root biomass/growth/length/branching
- root biomass/growth/length/branching compared to WT plants (ryegrass plants [2]; root promoter): increase in root biomass/growth/length/branching
